For assay [1], the target named is WT JR-FL gp120 (HIV-1 JR-FL). Put plainly: ELISA, antigen-coated wells, mAb titrated; EC50 by nonlinear regression. For orientation: An ELISA detects its analyte on a solid surface through an enzyme-linked reagent.
Assay [2] concerns the target HIV-1 Env of isolate MGRM-AG-005 (pseudovirus) (HIV-1). Put plainly: cell-based or functional assay.
Assay [3] deals with HIV-1 MGRM-C-028 Env (HIV-1). Put plainly: cell-based or functional assay.
The target in assay [4] is HIV-1 92RW020 Env (HIV-1). The experiment in a line: cell-based or functional assay.
Assay [5] has as its target HIV-1 Env of isolate MGRM-AE-005 (pseudovirus) (HIV-1). The experiment in a line: cell-based or functional assay.
In assay [6] the target is HIV-1 Env of isolate MGRM-AE-006 (pseudovirus) (HIV-1). The experiment in a line: cell-based or functional assay.
In assay [7] the target is HIV-1 Env of isolate MGRM-AE-004 (pseudovirus) (HIV-1). Put plainly: cell-based or functional assay.
Assay [8] deals with HIV-1 MGRM-A-010 Env (HIV-1). The experiment in a line: cell-based or functional assay.
The target of assay [9] is HIV-1 Env of isolate 93MW959 (HIV-1). The experiment in a line: cell-based or functional assay.
Assay [10] addresses HIV-1 Env of isolate PVO.4 (HIV-1). The experiment in a line: cell-based or functional assay.
The target of assay [11] is HIV-1 Env of isolate THR0.18 (HIV-1). The experiment in a line: cell-based or functional assay.
Assay [12] addresses HIV-1 Env of isolate VLGCB3 (HIV-1). Put plainly: cell-based or functional assay.
Assay [13] concerns the target HIV-1 Env of isolate CMU02 (pseudovirus) (HIV-1). Put plainly: cell-based or functional assay.
In assay [14] the target is HIV-1 Env of isolate TRO.11 (HIV-1). Put plainly: cell-based or functional assay.
Assay [15] deals with HIV-1 Env of isolate TRJ04551.58 (HIV-1). The experiment in a line: cell-based or functional assay.
Assay [16] deals with HIV-1 Env of isolate 93IN905 (HIV-1). Put plainly: cell-based or functional assay.
The target in assay [17] is HIV-1 Env of isolate MGRM-Chronic-B-024 (HIV-1). The experiment in a line: cell-based or functional assay.
The target of assay [18] is HIV-1 Env of isolate NL43 (HIV-1). Put plainly: cell-based or functional assay.
Assay [19] concerns the target HIV-1 Env of isolate 97ZA012 (HIV-1). Put plainly: cell-based or functional assay.
In assay [20] the target is HIV-1 Env of isolate SC422661.8 (HIV-1). Put plainly: cell-based or functional assay.
For assay [21], the target named is HIV-1 Env of isolate QH0692.42 (HIV-1). The experiment in a line: cell-based or functional assay.
The target in assay [22] is HIV-1 Env of isolate 98IN022 (HIV-1). The experiment in a line: cell-based or functional assay.
Assay [23] concerns the target HIV-1 Env of isolate 92UG031 (pseudovirus) (HIV-1). Put plainly: cell-based or functional assay.
Assay [24] deals with HIV-1 Env of isolate 92WR020 (pseudovirus) (HIV-1). The experiment in a line: cell-based or functional assay.
For assay [25], the target named is HIV-1 Env of isolate 92WR024 (pseudovirus) (HIV-1). Put plainly: cell-based or functional assay.
Assay [26] deals with HIV-1 Env of isolate 92UG037 (pseudovirus) (HIV-1). Put plainly: cell-based or functional assay.
Assay [27] concerns the target HIV-1 Env of isolate 93UG077 (pseudovirus) (HIV-1). The experiment in a line: cell-based or functional assay.
Assay [28] addresses HIV-1 Env of isolate 94UG103 (pseudovirus) (HIV-1). Put plainly: cell-based or functional assay.
In assay [29] the target is HIV-1 Env of isolate 92WR021 (pseudovirus) (HIV-1). The experiment in a line: cell-based or functional assay.
Assay [30] has as its target HIV-1 Env of isolate 93WR029 (pseudovirus) (HIV-1). Put plainly: cell-based or functional assay.

Sequence of 4995_P16 (PGT-145) (antibody) (VH): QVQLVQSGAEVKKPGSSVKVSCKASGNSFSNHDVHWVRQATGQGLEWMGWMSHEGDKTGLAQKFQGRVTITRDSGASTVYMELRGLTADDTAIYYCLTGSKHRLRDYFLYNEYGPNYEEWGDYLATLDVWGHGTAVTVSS
Sequence of 4995_P16 (PGT-145) (antibody) (VL): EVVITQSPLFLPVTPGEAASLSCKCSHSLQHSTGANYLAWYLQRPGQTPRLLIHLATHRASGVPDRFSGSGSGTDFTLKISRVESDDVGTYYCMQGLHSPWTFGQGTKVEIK
Sequence of 4995_E20 (PGT-142) (antibody) (VH): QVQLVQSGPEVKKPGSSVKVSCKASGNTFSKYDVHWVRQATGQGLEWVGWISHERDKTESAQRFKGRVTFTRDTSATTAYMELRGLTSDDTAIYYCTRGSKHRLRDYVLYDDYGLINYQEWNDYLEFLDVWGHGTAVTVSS
Sequence of 4995_E20 (PGT-142) (antibody) (VL): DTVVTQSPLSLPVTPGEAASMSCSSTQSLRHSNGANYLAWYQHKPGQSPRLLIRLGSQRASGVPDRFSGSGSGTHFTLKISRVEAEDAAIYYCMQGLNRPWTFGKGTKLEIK
Sequence of 4980_N08 (PGT-143) (antibody) (VH): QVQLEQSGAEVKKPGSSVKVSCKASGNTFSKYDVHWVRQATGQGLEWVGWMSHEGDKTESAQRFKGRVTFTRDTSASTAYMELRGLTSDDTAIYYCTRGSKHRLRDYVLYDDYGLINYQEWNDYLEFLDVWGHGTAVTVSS
Sequence of 4980_N08 (PGT-143) (antibody) (VL): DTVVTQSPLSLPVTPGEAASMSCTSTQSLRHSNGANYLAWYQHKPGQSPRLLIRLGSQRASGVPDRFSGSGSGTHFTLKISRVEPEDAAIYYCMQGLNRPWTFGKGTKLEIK
Sequence of 4970_K22 (PGT-144) (antibody) (VH): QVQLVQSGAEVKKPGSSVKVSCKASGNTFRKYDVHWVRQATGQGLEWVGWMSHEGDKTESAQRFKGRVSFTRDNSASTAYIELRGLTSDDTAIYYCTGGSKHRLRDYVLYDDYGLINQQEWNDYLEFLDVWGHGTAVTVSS
Sequence of 4970_K22 (PGT-144) (antibody) (VL): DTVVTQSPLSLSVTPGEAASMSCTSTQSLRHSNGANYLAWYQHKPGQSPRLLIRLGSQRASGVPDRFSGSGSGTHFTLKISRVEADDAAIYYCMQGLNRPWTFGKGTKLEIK
Sequence of 4993_K13 (PGT-141) (antibody) (VH): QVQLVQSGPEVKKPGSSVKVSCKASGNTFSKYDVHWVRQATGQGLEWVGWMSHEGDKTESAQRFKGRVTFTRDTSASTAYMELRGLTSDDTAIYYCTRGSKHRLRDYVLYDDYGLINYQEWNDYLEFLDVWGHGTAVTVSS

As usually defined, the EC50 is the concentration giving half of the maximal effect. 4858_P08 (PGT-123) (antibody) returned an EC50 in [1] of 0.2 µg/mL. Also, the IC50 (µg/mL), pseudovirus neutralization is 0.149 µg/mL in assay [2], greater than 50 µg/mL in assay [5], greater than 50 µg/mL in assay [6] and greater than 50 µg/mL in assay [7]. The IC50, pseudovirus neutralization in assay [3] came out at 0.443 µg/mL; in assay [4], 0.0038 µg/mL; in assay [8] it was 0.492 µg/mL.

Turning to 4838_L06 (PGT-121) (antibody), in [1], the EC50 came to 0.2 µg/mL.

In [1], 5145_B14 (PGT-127) (antibody) returned an EC50 of 0.1 µg/mL. Also, the IC50 (µg/mL), pseudovirus neutralization in assay [2], in assay [5], in assay [6] and in [7] was greater than 50 µg/mL each time.

Regarding PGV04 (antibody), the IC50 (µg/mL), pseudovirus neutralization in assay [2] was 0.027 µg/mL; in [9], greater than 50 µg/mL; in assay [10], 0.454 µg/mL; in assay [11], greater than 50 µg/mL; in [12], 0.045 µg/mL; in assay [13] it was 1.24 µg/mL. The IC50 (µg/mL), pseudovirus neutralization in assay [14] was 0.121 µg/mL; in assay [15] it was 0.028 µg/mL; in assay [5], 0.051 µg/mL; in assay [16] it was 0.332 µg/mL; in assay [17], 2.52 µg/mL; in assay [6] it was greater than 50 µg/mL. The IC50 (µg/mL), pseudovirus neutralization came out at 0.183 µg/mL in assay [7]; 0.028 µg/mL in assay [18]; 0.041 µg/mL in [19]; 0.11 µg/mL in assay [20]; 1.9 µg/mL in assay [21]; 5.69 µg/mL in assay [22].

Consider 4970_K22 (PGT-144) (antibody), for which the IC50 (µg/mL), single-round pseudovirus neutralization was 2.17 µg/mL in assay [23]; greater than 50 µg/mL in assay [24]; 16.3 µg/mL in [25]; 8.24 µg/mL in [26]; greater than 50 µg/mL in assay [27]; greater than 50 µg/mL in [28]. The IC50 (µg/mL), single-round pseudovirus neutralization in assay [13] was greater than 50 µg/mL; in [29], greater than 50 µg/mL; in [5], greater than 50 µg/mL; in assay [30] it was 4.39 µg/mL; in [6] it was greater than 50 µg/mL; in assay [7] it was 0.104 µg/mL. Also, in assay [4], the IC50, pseudovirus neutralization was greater than 10 µg/mL.

For 4995_E20 (PGT-142) (antibody), the IC50 (µg/mL), single-round pseudovirus neutralization in [23] was 0.05 µg/mL; in assay [24], 31.5 µg/mL; in [25], 0.069 µg/mL; in [26] it was 0.557 µg/mL; in assay [27], greater than 50 µg/mL; in [28] it was greater than 50 µg/mL. The IC50 (µg/mL), single-round pseudovirus neutralization is greater than 50 µg/mL in assay [13]; greater than 50 µg/mL in assay [29]; greater than 50 µg/mL in assay [5]; 0.014 µg/mL in assay [30]; greater than 50 µg/mL in assay [6]; 0.001 µg/mL in assay [7]. For the same substance, the IC50, pseudovirus neutralization in assay [4] was greater than 10 µg/mL.

Take 4877_D15 (PGT-122) (antibody): in [1], the EC50 amounted to 0.3 µg/mL. Moreover, the IC50 (µg/mL), pseudovirus neutralization in assay [2] is 33.9 µg/mL; in assay [5] it was greater than 50 µg/mL; in assay [6], greater than 50 µg/mL; in assay [7], greater than 50 µg/mL. For the same substance, the values for the IC50, pseudovirus neutralization in [3], in [4] and in assay [8] were 2.06 µg/mL, 0.0072 µg/mL and 1.68 µg/mL, respectively.

For 4993_K13 (PGT-141) (antibody), the IC50 (µg/mL), single-round pseudovirus neutralization in [23] was 0.093 µg/mL; in assay [24], greater than 50 µg/mL; in assay [25], 0.175 µg/mL; in [26], 1.28 µg/mL; in [27], greater than 50 µg/mL; in assay [28] it was greater than 50 µg/mL. For the same substance, the IC50 (µg/mL), single-round pseudovirus neutralization in [13] is greater than 50 µg/mL; in assay [29] it was greater than 50 µg/mL; in [5], greater than 50 µg/mL; in assay [30], 0.019 µg/mL; in assay [6], greater than 50 µg/mL; in [7] it was greater than 50 µg/mL. This substance also gave an IC50, pseudovirus neutralization in assay [4] greater than 10 µg/mL.

In assay [1], 5141_B17 (PGT-126) (antibody) showed an EC50 of 0.1 µg/mL. For the same substance, the IC50 (µg/mL), pseudovirus neutralization in assay [2] was 1.21 µg/mL; in assay [5], 0.324 µg/mL; in [6], 17.3 µg/mL; in assay [7] it was greater than 50 µg/mL. Moreover, the values for the IC50, pseudovirus neutralization in assay [3], in [4] and in [8] were 0.283 µg/mL, 0.0046 µg/mL and 0.0033 µg/mL, respectively.

As to 4995_P16 (PGT-145) (antibody), the IC50 (µg/mL), single-round pseudovirus neutralization in assay [23] is 3.22 µg/mL; in assay [24], 0.997 µg/mL; in assay [25], 0.069 µg/mL; in [26], 3.15 µg/mL; in assay [27], greater than 50 µg/mL; in assay [28], 0.331 µg/mL. The IC50 (µg/mL), single-round pseudovirus neutralization in assay [13] is 1.43 µg/mL; in assay [29] it was 1.62 µg/mL; in assay [5], 0.967 µg/mL; in [30], greater than 50 µg/mL; in assay [6], greater than 50 µg/mL; in assay [7] it was 0.006 µg/mL.

As for 4980_N08 (PGT-143) (antibody), the IC50 (µg/mL), single-round pseudovirus neutralization in [23] is 0.095 µg/mL; in assay [24], greater than 50 µg/mL; in assay [25], 0.122 µg/mL; in assay [26], 0.854 µg/mL; in assay [27], greater than 50 µg/mL; in [28] it was greater than 50 µg/mL. Also, the IC50 (µg/mL), single-round pseudovirus neutralization in assay [13] is greater than 50 µg/mL; in assay [29], greater than 50 µg/mL; in assay [5] it was greater than 50 µg/mL; in assay [30] it was 0.053 µg/mL; in assay [6] it was greater than 50 µg/mL; in [7] it was 0.002 µg/mL. This substance also showed an IC50, pseudovirus neutralization in [4] greater than 10 µg/mL.

Regarding 5123_A06 (PGT-125) (antibody), the half-maximal effective concentration (EC50) in [1] is 0.2 µg/mL. Besides, the IC50 (µg/mL), pseudovirus neutralization in assay [2] is greater than 50 µg/mL; in [5], 0.01 µg/mL; in [6], 0.009 µg/mL; in assay [7], greater than 50 µg/mL. The IC50, pseudovirus neutralization in [3] amounted to 5.78 µg/mL; in assay [4], 0.0028 µg/mL; in [8] it was 0.0025 µg/mL.

The values are drawn from patent US20240132578A1.
